These are literature values, as cited in PMC10817355.

The Kd is the equilibrium constant for the complex coming apart.

For this series, the target named is BTLA (Homo sapiens) (UniProt Q7Z6A9).
Sequence of UniProt Q7Z6A9 (Q7Z6A9 31-157): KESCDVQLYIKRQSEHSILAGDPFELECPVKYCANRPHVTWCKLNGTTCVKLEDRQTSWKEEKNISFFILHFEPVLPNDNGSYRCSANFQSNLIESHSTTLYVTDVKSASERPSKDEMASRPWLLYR

For HVEM(14-39) 14-39 (from UniProt Q92956), the Kd is 102 nM.
